{"source": "paper PMC7173111", "target": "HBc-YFP fusion protein (Hepatitis B virus) (UniProt P03146)", "sequence (P03146 whole entry, the tested form may be a part)": "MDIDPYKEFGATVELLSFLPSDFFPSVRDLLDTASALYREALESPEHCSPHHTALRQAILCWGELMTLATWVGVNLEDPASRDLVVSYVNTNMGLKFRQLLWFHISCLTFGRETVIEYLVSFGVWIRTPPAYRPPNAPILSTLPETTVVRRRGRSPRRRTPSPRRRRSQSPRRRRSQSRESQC", "assay": "FRET or BRET"}
{"substance": "A3G-CFP fusion protein (from UniProt Q9HC16 1-384) (natural protein)", "values": [{"measurement": "FRET efficiency (E EFF, %)", "result": 18.5, "unit": "%"}, {"measurement": "FRET ratio (FR)", "result": 1.68}]}
